For experiment [1], the target named is recombinant full-length neuroligin-3 (Origene) (mouse) (UniProt Q8BYM5). As to the kind of experiment: cell-based or functional assay.
The target of experiment [2] is secreted neuroligin-3 in conditioned medium of optogenetically stimulated Thy1::ChR2 mouse cortical slices (mouse). Put plainly: cell-based or functional assay.

Sequence of UniProt Q8BYM5 (Q8BYM5 35-825 limits assumed): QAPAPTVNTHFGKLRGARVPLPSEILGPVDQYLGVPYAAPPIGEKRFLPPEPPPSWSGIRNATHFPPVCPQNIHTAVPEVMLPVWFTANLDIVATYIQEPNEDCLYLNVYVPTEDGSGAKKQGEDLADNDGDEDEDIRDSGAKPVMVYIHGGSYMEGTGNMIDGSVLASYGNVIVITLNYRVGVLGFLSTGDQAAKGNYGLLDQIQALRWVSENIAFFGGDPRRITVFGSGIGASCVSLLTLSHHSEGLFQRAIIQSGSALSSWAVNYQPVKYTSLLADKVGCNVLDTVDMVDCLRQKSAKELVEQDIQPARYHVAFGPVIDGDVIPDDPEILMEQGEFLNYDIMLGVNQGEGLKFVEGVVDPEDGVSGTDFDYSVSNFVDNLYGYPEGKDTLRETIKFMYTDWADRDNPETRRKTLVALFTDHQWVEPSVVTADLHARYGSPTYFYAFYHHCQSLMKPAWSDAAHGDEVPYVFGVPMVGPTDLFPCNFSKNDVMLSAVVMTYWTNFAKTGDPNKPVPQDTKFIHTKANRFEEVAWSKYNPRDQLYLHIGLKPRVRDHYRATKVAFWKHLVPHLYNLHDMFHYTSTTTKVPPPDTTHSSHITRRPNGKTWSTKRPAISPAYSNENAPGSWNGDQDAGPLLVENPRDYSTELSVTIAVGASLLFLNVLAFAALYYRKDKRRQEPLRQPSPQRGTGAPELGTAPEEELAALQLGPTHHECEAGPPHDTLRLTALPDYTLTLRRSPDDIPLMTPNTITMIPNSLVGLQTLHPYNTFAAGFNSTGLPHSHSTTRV

For “neurexin-1β (recombinant, R&D Systems) (ligand)”, the proliferation index of pHGG (SU-pcGBM2) cells, EdU assay, 24 h in experiment [1] turned out to be 0.28; in experiment [2], 0.34.

The values are drawn from US20160222100A1.
